# Test: Lipid hydroperoxide assay in UV irradiated and non-irradiated plasma
# Format: biochemical
# Settings: 300 μg RoxP in 500 μl blood, plasma both irradiated (UVA/UVB) and non-irradiated
# Experimental: Hydroperoxides react with Fe^2+ ions to produce Fe^3+ ions which are detected using thiocyanate ion as chromogen. Lower abundance of Fe^3+ ions results in lowered absorbance, indicating lower level of lipid hydroperoxides in irradiated plasma.
# Blood was collected in EDTA tubes. Samples containing 500 μl blood+150 μl RoxP (300 μg RoxP), or 500 μl blood+150 μl PBS, were subjected to irradiation:
# UVA—irradiation 3×5000 μJ/cm^2; tubes were rotated between irradiation steps; or
# Controls having composition identical to the samples, but not irradiated, were included in the experiment.
# The blood samples were centrifuged at 1000×g, plasma was collected and frozen at −80° C.
# Lipid hydroperoxides were quantified using lipid hydroperoxide assay kit (Cayman Chemical, item no. Item No. 705002).
molecule,measurement,value
"RoxP: radical oxygenase of Propionibacterium acnes, secreted antioxidant protein of C. acnes; SEQ ID NO: 1 for strain KPA171202 (protein, Cutibacterium acnes) MFVQIAASLAAASSIALGIPGAATPIDESQLPVGPQVSVTDSAQHTGPFAASSPLTITVKPGAPCVRADGYQESMVTRVLDDKGHQVWTGTFDESKLIGGTGLGTATFHVGSPAAAFNFHGSERTTYRTLSYCAYPHYVNGTRERLSQVSVKTFMVDPALN",lipid hydroperoxide levels,reduced
